# Test results published in US10512676B2, “Formulations comprising recombinant acid alpha-glucosidase” (Amicus Therapeutics, Inc., priority 2016, dated 2019).
# Legend:
# [1] = Plasma total GAA protein pharmacokinetics, phase 1/2 study in adults with Pompe disease; type: in vivo, human; conditions: for Total GAA Protein AUC0-t / Total GAA Protein AUC0-∞ / Total GAA Protein Cmax: n = 8, geometric mean
# [2] = Apparent plasma half-life in vivo
# [3] = tested on: Pompe fibroblasts and skeletal muscle myoblasts; test: Internalization by Pompe fibroblasts and skeletal muscle myoblasts; type: cell-based
# [4] = Safety and tolerability in patients with Pompe disease; type: in vivo, human; conditions: alone and in combination with miglustat
# Experimental: Mean total GAA protein and miglustat PK results from the first 8 Cohort 1 patients through Visit 9 and the first 2 Cohort 3 patients were assessed.
# [5] = Cohort 1, 5 mg/kg alone, n = 8, arithmetic mean
# [6] = Cohort 1, 10 mg/kg alone, n = 8, arithmetic mean
# [7] = Cohort 1, 20 mg/kg alone, n = 8, arithmetic mean
# [8] = Cohort 1, ATB200 20 mg/kg + miglustat high MD, n = 8, arithmetic mean
# [9] = Cohort 1, ATB200 20 mg/kg + miglustat high SD, n = 7, arithmetic mean
# [10] = Cohort 1, ATB200 20 mg/kg + miglustat low MD, n = 8, arithmetic mean
# [11] = Cohort 1, ATB200 20 mg/kg + miglustat low SD, n = 8, arithmetic mean
# [12] = Cohort 3, ATB200 20 mg/kg + miglustat high MD (first Cohort 3 line), n = 2, arithmetic mean
# [13] = Cohort 3, ATB200 20 mg/kg + miglustat high MD (second Cohort 3 line), n = 2, arithmetic mean
substance,measurement,setting,value
ATB200: recombinant human acid α-glucosidase expressed in CHO cells with increased content of M6P-bearing N-glycans,increase of distribution half-life (α-phase),[1]; ATB200 20 mg/kg with miglustat 260 mg relative to ATB200 alone,45%
same,increase of total GAA protein exposure (AUC),[1]; ATB200 20 mg/kg with miglustat 260 mg relative to ATB200 alone at 20 mg/kg,approximately 25%
same,dose proportionality of plasma total GAA protein,"[1]; ATB200 given alone, 5, 10, 20 mg/kg",increases in a slightly greater-than-dose-proportional manner
same,Total GAA Protein CLT,[1]; [5],2.1 L/h
same,Total GAA Protein VSS,[1]; [5],4.62 L
same,Total GAA Protein αt1/2,[1]; [5],1.1 h
same,Total GAA Protein βt1/2,[1]; [5],1.9 h
same,Total GAA Protein AUC0-t,"[1]; Cohort 1, 5 mg/kg alone",215 ng·h/mL
same,Total GAA Protein AUC0-∞,"[1]; Cohort 1, 5 mg/kg alone",218 ng·h/mL
same,Total GAA Protein Cmax,"[1]; Cohort 1, 5 mg/kg alone",61 ng/mL
same,Total GAA Protein tmax,"[1]; Cohort 1, 5 mg/kg alone, n = 8, median",3.8 h
same,Total GAA Protein CLT,[1]; [6],1.59 L/h
same,Total GAA Protein VSS,[1]; [6],3.87 L
same,Total GAA Protein αt1/2,[1]; [6],1.3 h
same,Total GAA Protein βt1/2,[1]; [6],1.6 h
same,Total GAA Protein AUC0-t,"[1]; Cohort 1, 10 mg/kg alone",578 ng·h/mL
same,Total GAA Protein AUC0-∞,"[1]; Cohort 1, 10 mg/kg alone",584 ng·h/mL
same,Total GAA Protein Cmax,"[1]; Cohort 1, 10 mg/kg alone",144 ng/mL
same,Total GAA Protein CLT,[1]; [7],1.22 L/h
same,Total GAA Protein VSS,[1]; [7],3.52 L
same,Total GAA Protein αt1/2,[1]; [7],1.5 h
same,Total GAA Protein βt1/2,[1]; [7],2.1 h
same,Total GAA Protein AUC0-t,"[1]; Cohort 1, 20 mg/kg alone",1508 ng·h/mL
same,Total GAA Protein AUC0-∞,"[1]; Cohort 1, 20 mg/kg alone",1512 ng·h/mL
same,Total GAA Protein Cmax,"[1]; Cohort 1, 20 mg/kg alone",345 ng/mL
same,Total GAA Protein CLT,[1]; [8],0.98 L/h
same,Total GAA Protein αt1/2,[1]; [8],2.1 h
same,Total GAA Protein βt1/2,[1]; [8],2.5 h
same,Total GAA Protein CLT,[1]; [9],0.98 L/h
same,Total GAA Protein αt1/2,[1]; [9],2.3 h
same,Total GAA Protein βt1/2,[1]; [9],2.7 h
same,Total GAA Protein CLT,[1]; [10],1.02 L/h
same,Total GAA Protein αt1/2,[1]; [10],1.9 h
same,Total GAA Protein βt1/2,[1]; [10],2.5 h
same,Total GAA Protein CLT,[1]; [11],1.09 L/h
same,Total GAA Protein αt1/2,[1]; [11],1.8 h
same,Total GAA Protein βt1/2,[1]; [11],2.4 h
same,Total GAA Protein CLT,[1]; [12],0.69 L/h
same,Total GAA Protein αt1/2,[1]; [12],2 h
same,Total GAA Protein βt1/2,[1]; [12],2.4 h
same,Total GAA Protein CLT,[1]; [13],0.66 L/h
same,Total GAA Protein αt1/2,[1]; [13],1.9 h
same,Total GAA Protein βt1/2,[1]; [13],2.6 h
same,volume of distribution,[1]; in vivo,relatively high volume of distribution
same,apparent plasma half-life (t1/2),[2],~0.75 h
same,Kuptake,[3],7 to 14 nM
same,safety and tolerability,[4],safe and well tolerated
